These results are taken from publication PMC9160799, “PET Imaging of Acidic Tumor Environment With ^89Zr-labeled pHLIP Probes” (Frontiers in Oncology, 2022).

Data set [1] is described as follows: Post-mortem biodistribution, RM-1 tumor model. As to conditions: male, athymic nude, mouse, in vivo, iv, 1.2 nmol, total radioactivity. In kind it is in vivo, male athymic nude mice. As for the experimental part:
(§1) The media were provided by the MSK Media Preparation Core. […] Another aliquot was diluted with the medium so that 50 µL contained 1×10^6 cells.
(§2) The imaging and biodistribution studies were performed with male (RM-1 model) and female (4T1 model) athymic nude mice and the kidney-blocking experiments were performed with female SCID mice received from Charles River Laboratories (Stone Ridge, NY). After arrival, the mice were kept in the MSK vivarium for one week before any experimental handling was performed. The animals were allowed free access to water and food, and all animal care and experimental procedures were approved by the Institutional Animal Care and Use Committee (IACUC). For the subcutaneous allografts, a 1-to-1 ratio of Corning Matrigel Matrix and the cell solution was prepared and stored on ice for the injections. Each mouse received a subcutaneous injection of 100 µL (50 µL cell solution, viability > 90%, + 50 µL Matrigel) into the flank on the level of the right shoulder. The injections were performed under anesthesia (2% isoflurane, Baxter Healthcare, Deerfield, IL, USA).
(§3) The mice were intravenously injected (tail vein) with the radiolabeled pHLIP conjugates (1.2 nmol, 7.4 MBq/200 µCi, 100 µL, in sterile filtered PBS). The activity of the syringe prior to injection and after injection was used to determine the percent of injectate administered.
(§4) For the biodistribution studies the tumor-bearing mice were randomized before the injections. Only mice with suitable tumors (150–300 mm^3) were utilized. An exception was made for the 120-hour timepoint, for which only mice with smaller tumors (150 mm^3) were selected. The mice were grouped in cohorts of four. At the respective timepoint, the mice were euthanized (by CO2 asphyxiation, followed by cervical dislocation) and their blood was collected by cardiac puncture as a terminal procedure, followed by quick removal of the tumors. After this, the other organs/samples were collected. […] The exact activities of all samples of one mouse were determined by an Capintec® CRC-55tR dose calibrator. These decay-corrected measurements were used to determine a calibration factor and calibrate all counts to the corresponding activities. Activity concentrations were calculated as percentage injected dose per tissue weight (%ID/g wet tissue). All data was processed and visualized using Origin 8.5.

The subject of data set [2] is RM-1 tumor allografts. Put plainly: Post-mortem biodistribution, RM-1 tumor model. In kind it is in vivo, male athymic nude mice. As to conditions: mouse, in vivo, iv, 1.2 nmol, 48 h. As for the experimental part:
as §1, §2, §3, §4

Data set [3] can be described thus: in vivo. Details: species or system female athymic nude mice. As to conditions: female, athymic nude, mouse, iv, 1.2 nmol, total radioactivity. Here is the method:
as §1, §2, §3, §4

Turning to `CC(=O)N[C@H](C)C(=O)N[C@H](CCCCNC(=S)Nc1ccc(NC(=S)NCCCCCN(O)C(=O)CCC(=O)NCCCCCN(O)C(=O)CCC(=O)NCCCCCN(O)C(C)=O)cc1)C(=O)N[C@H](CC(=O)O)C(=O)N[C@H](CC(=O)O)C(=O)N[C@H](CCC(N)=O)C(=O)N[C@H](CC(N)=O)C(=O)N1CCC[C@@H]1C(=O)N[C@H](Cc1c[nH]c2ccccc12)C(=O)N[C@H](CCCNC(=N)N)C(=O)N[C@H](C)C(=O)N[C@H](Cc1ccc(O)cc1)C(=O)N[C@H](CC(C)C)C(=O)N[C@H](CC(=O)O)C(=O)N[C@H](CC(C)C)C(=O)N[C@H](CC(C)C)C(=O)N[C@H](Cc1ccccc1)C(=O)N1CCC[C@@H]1C(=O)N[C@@H](C(=O)N[C@H](CC(=O)O)C(=O)N[C@@H](C(=O)N[C@H](CC(C)C)C(=O)N[C@H](CC(C)C)C(=O)N[C@H](CC(C)C)C(=O)N[C@H](CC(=O)O)C(=O)N[C@H](CC(C)C)C(=O)N[C@H](CC(C)C)C(=O)N[C@H](Cc1c[nH]c2ccccc12)C(=O)N[C@H](C)C(=O)O)[C@H](C)O)[C@H](C)O` (89Zr complex, metal not drawn) [DFO-Lys-Var3], the tissue uptake (in general, the share of the injected amount in each gram of the tissue) at 48 h in data set [1] (Blood uptake) turned out to be 0.5 ± 0.1 %ID/g; in data set [1] (Brain uptake) it was 0.06 ± 0.01 %ID/g; in data set [1] (Heart uptake), 1.3 ± 0.03 %ID/g; in data set [1] (Kidneys uptake) it was 27.9 ± 3.6 %ID/g; in data set [1] (Liver uptake), 8.7 ± 0.8 %ID/g; in data set [1] (Lungs uptake), 2 ± 0.6 %ID/g. The tissue uptake at 48 h in data set [1] (Muscle uptake) was 0.5 ± 0.1 %ID/g; in data set [1] (Pancreas uptake) it was 1 ± 0.2 %ID/g; in data set [1] (Skin uptake) it was 1.7 ± 0.3 %ID/g; in data set [1] (Spleen uptake) it was 7.2 ± 0.7 %ID/g; in data set [1] (Tibia uptake) it was 1.4 ± 0.2 %ID/g. This compound gave a Tumor uptake in data set [2] of 6.9 ± 1.9 %ID/g.
As to `CC(=O)N[C@H](C)C(=O)N[C@H](CCCCNc1c(NCCCCCN(O)C(=O)CCC(=O)NCCCCCN(O)C(=O)CCC(=O)NCCCCCN(O)C(C)=O)c(=O)c1=O)C(=O)N[C@H](CC(=O)O)C(=O)N[C@H](CC(=O)O)C(=O)N[C@H](CCC(N)=O)C(=O)N[C@H](CC(N)=O)C(=O)N1CCC[C@@H]1C(=O)N[C@H](Cc1c[nH]c2ccccc12)C(=O)N[C@H](CCCNC(=N)N)C(=O)N[C@H](C)C(=O)N[C@H](Cc1ccc(O)cc1)C(=O)N[C@H](CC(C)C)C(=O)N[C@H](CC(=O)O)C(=O)N[C@H](CC(C)C)C(=O)N[C@H](CC(C)C)C(=O)N[C@H](Cc1ccccc1)C(=O)N1CCC[C@@H]1C(=O)N[C@@H](C(=O)N[C@H](CC(=O)O)C(=O)N[C@@H](C(=O)N[C@H](CC(C)C)C(=O)N[C@H](CC(C)C)C(=O)N[C@H](CC(C)C)C(=O)N[C@H](CC(=O)O)C(=O)N[C@H](CC(C)C)C(=O)N[C@H](CC(C)C)C(=O)N[C@H](Cc1c[nH]c2ccccc12)C(=O)N[C@H](C)C(=O)O)[C@H](C)O)[C@H](C)O` (89Zr complex, metal not drawn) [DFOsqa-Lys-Var3], the tissue uptake at 48 h in data set [1] (Blood uptake) amounted to 0.3 ± 0.03 %ID/g; in data set [1] (Brain uptake), 0.06 ± 0.02 %ID/g; in data set [1] (Heart uptake), 1.6 ± 0.1 %ID/g; in data set [1] (Kidneys uptake), 82.5 ± 14.2 %ID/g; in data set [1] (Liver uptake), 10.8 ± 2.1 %ID/g; in data set [1] (Lungs uptake) it was 2.5 ± 0.6 %ID/g. Also, the tissue uptake at 48 h in data set [1] (Pancreas uptake) is 1.2 ± 0.1 %ID/g; in data set [1] (Skin uptake), 2.1 ± 0.07 %ID/g; in data set [1] (Spleen uptake), 6.4 ± 1.4 %ID/g; in data set [1] (Tibia uptake), 1.6 ± 0.1 %ID/g; in data set [3] (Blood uptake) it was 0.4 ± 0.01 %ID/g; in data set [3] (Brain uptake) it was 0.04 ± 0.01 %ID/g. In addition, the tissue uptake at 48 h was found to be 1.3 ± 0.06 %ID/g in data set [3] (Heart uptake); 82.5 ± 10.9 %ID/g in data set [3] (Kidneys uptake); 11.2 ± 1 %ID/g in data set [3] (Liver uptake); 1.4 ± 0.2 %ID/g in data set [3] (Lungs uptake); 0.5 ± 0.04 %ID/g in data set [3] (Muscle uptake); 0.8 ± 0.1 %ID/g in data set [3] (Pancreas uptake). The tissue uptake at 48 h in data set [3] (Skin uptake) is 2.6 ± 0.4 %ID/g; in data set [3] (Spleen uptake) it was 6.9 ± 0.6 %ID/g; in data set [3] (Tibia uptake), 1.5 ± 0.2 %ID/g; in data set [3] (Tumor uptake), 10.2 ± 1.2 %ID/g. The compound further had a Tumor uptake in data set [2] of 12.4 ± 4.7 %ID/g.
